We go through one molecule from patent publication US12564637B2, “Nucleic acid mazzocchio and methods of making and use thereof” (The University of Hong Kong, priority 2019, dated 2026).

Data set [1] in a line: Doxorubicin loading/encapsulation by quenching of doxorubicin fluorescence. The format is binding. How it is done:
The DNA mazzocchio (from Example 1) and DNA tetrahedron nanostructures were made through an annealing process. The multiple single-stranded DNAs were mixed in equal ratio and placed in a thermal cycler to heat up (95° C. for 5 minutes) followed by slow cooling (overnight down to 20° C.).
10 μM of doxorubicin was incubated with various concentrations of the DNA mazzocchio and DNA tetrahedron nanostructures (as shown on the X-axis of FIG. 2) for 1 hour at room temperature. Then, 13 μl of mixture was placed in a 384-well microtiter plate and inserted in the plate reader. The fluorescence was measured using a plate reader (Varioskan Flash by Thermo Fisher Scientific) at the following parameters: Excitation 488 nm/Emission 595 nm; bandwidth 12 nm; measurement time: 500 ms. Error bars were obtained as standard error from triplicate experiments.
Since the intercalation of doxorubicin inhibited its fluorescence, the loading efficiency could be determined by the half maximal inhibitory concentration (IC50).

A short description of data set [2]: Diameter of the nanostructure by transmission electron microscopy (TEM). The note with it: images analyzed by ImageJ. The format is physicochemical. As for the experimental part:
TEM was used to characterize the final DNA mazzocchio nanostructure. 5 μl of DNA mazzocchio samples were first adsorbed onto glow-discharged 400 mesh copper grids (Ted Pella, Inc.) for 1 minute. This was followed by staining with 2% uranyl acetate for 1 minute. The stained samples were washed twice by distilled water to remove excess uranyl acetate. Stained DNA mazzocchio samples on the grid were visualized using a Philips CM 100 Transmission Electron Microscope with 100 kV operating voltage. Electron photomicrographs of DNA mazzocchio were captured with magnification from 73,000×-105,000× on different positions of the grid. To experimentally determine the diameter of the DNA mazzocchio, images were analyzed by the ImageJ software.

B1: mazzocchio: DNA nanostructure of 16 hexagonal subunits, each composed of 12 single-stranded DNA oligonucleotides (SEQ ID NOs: 1-12) (nucleic acid)
chain 1: GATAGGCCGAGATCTGAGGATGCTGGCTCACGCCATTGGCTCGCGACCCCGTCCGCTAGACGTTATGCACAAGGCGTTGTCATTAGATGCTTAGGTGCTCAGGCCGTAATGAGGCCGCTTGGCTGCGTTCCTCCGCCGCTTGGGAACAGCCCCGC
chain 2: TCCAGCTCTGCGGACGGGGTCGCGAGCCATTCGAGGGCT
chain 3: TCGCCTGTAATACGCCTTGTGCATAACGTCTTGCCAACCC
chain 4: TGCCCGTACCCTGGTGCACCTAAGCATCTAATGACTCTGCGGAAGA
chain 5: TACCCCACTTTAGCGATAGCGGCCTCATTACGGCCTGTGCTACCCGTACGGA
chain 6: ATCAGTACGATTGGCGTGAGCCAGCATCCTCTAGCGGCGGAGGAACGCAGCCTAGGCGGAACTCTTCGG
chain 7: TCGCTAAAGTGGGGTACCGAAGAGTTCCGCCT
chain 8: GATCTCGGCCTATCGCGGGGCTGTTCCC
chain 9: TCGTACTGATGAGCCCTCGA
chain 10: GAGCTGGAGGGTTGGC
chain 11: TTACAGGCGATCTTCCGCAG
chain 12: CCAGGGTACGGGCATCCGTACGGGTAGC
modifications: 16 hexagonal subunits assembled; Synthetic sequence - strand 1; Synthetic sequence - strand 2; Synthetic sequence - strand 3; Synthetic sequence - strand 4; Synthetic sequence - strand 5; Synthetic sequence - strand 6; Synthetic sequence - strand 7; Synthetic sequence - strand 8; Synthetic sequence - strand 9; Synthetic sequence - strand 10; Synthetic sequence - strand 11; Synthetic sequence - strand 12
For the molecule B1, the IC50 in data set [1] (10 μM doxorubicin, 1 hour at room temperature, Ex 488 nm/Em 595 nm, triplicate, read-out: half maximal inhibitory concentration (IC50) of doxorubicin fluorescence (loading efficiency)) was 480 nM. For the same molecule, the “effectiveness in carrying doxorubicin as compared to the tetrahedron” value in data set [1] (comparison of the IC50 values) is recorded as “three times more effective”. Further, the “average diameter of the nanostructures” value in data set [2] was found to be 49.30±10.37 nm.
